The Human Domainome abundance scans (Beltran et al. 2025)
± gives the uncertainty stated by the source.

B1: POU domain, class 3, transcription factor 3, residues 320 to 388; numbered along this chain, P20264 (parent)
chain: DDLEQFAKQFKQRRIKLGFTQADVGLALGTLYGNVFSQTTICRFEALQLSFKNMCKLKPLLNKWLEEAD

Variants of: B1
Experiment: abundance fitness (aPCA) (normalised: wild type 0, dead -1); higher = more abundant; growth selection in yeast, the domain comes from the species named
Conditions: Homo sapiens

Variant	abundance fitness
DDLEQFAKQFKQRRIKLGFTQADVGLALGTLYGNVFSQTTICRFEALQLSFKNMCKLKPLLNFWLEEAD	-0.149 ± 0.16
DDLEQFAKQFKQRRIKLGFTQADVGLALGTLYGNVFSQTTICRFEALQLSFKNMCKLKPLLNGWLEEAD	-0.074 ± 0.039
DDLEQFAKQFKQRRIKLGFTQADVGLALGTLYGNVFSQTTICRFEALQLSFKNMCKLKPLLNHWLEEAD	-0.189 ± 0.05
DDLEQFAKQFKQRRIKLGFTQADVGLALGTLYGNVFSQTTICRFEALQLSFKNMCKLKPLLNIWLEEAD	-0.697 ± 0.14
DDLEQFAKQFKQRRIKLGFTQADVGLALGTLYGNVFSQTTICRFEALQLSFKNMCKLKPLLNLWLEEAD	-0.493 ± 0.059
DDLEQFAKQFKQRRIKLGFTQADVGLALGTLYGNVFSQTTICRFEALQLSFKNMCKLKPLLNMWLEEAD	-0.435 ± 0.1
DDLEQFAKQFKQRRIKLGFTQADVGLALGTLYGNVFSQTTICRFEALQLSFKNMCKLKPLLNNWLEEAD	-0.261 ± 0.13
DDLEQFAKQFKQRRIKLGFTQADVGLALGTLYGNVFSQTTICRFEALQLSFKNMCKLKPLLNPWLEEAD	-0.77 ± 0.13
DDLEQFAKQFKQRRIKLGFTQADVGLALGTLYGNVFSQTTICRFEALQLSFKNMCKLKPLLNQWLEEAD	-0.066 ± 0.073
DDLEQFAKQFKQRRIKLGFTQADVGLALGTLYGNVFSQTTICRFEALQLSFKNMCKLKPLLNSWLEEAD	-0.317 ± 0.066
DDLEQFAKQFKQRRIKLGFTQADVGLALGTLYGNVFSQTTICRFEALQLSFKNMCKLKPLLNVWLEEAD	-0.743 ± 0.093
DDLEQFAKQFKQRRIKLGFTQADVGLALGTLYGNVFSQTTICRFEALQLSFKNMCKLKPLLNWWLEEAD	-0.658 ± 0.093
DDLEQFAKQFKQRRIKLGFTQADVGLALGTLYGNVFSQTTICRFEALQLSFKNMCKLKPLLNYWLEEAD	-0.53 ± 0.12
DDLEQFAKQFKQRRIKLGFTQADVGLALGTLYGNVFSQTTICRFEALQLSFKNMCKLKPLLNKALEEAD	-0.737 ± 0.16
DDLEQFAKQFKQRRIKLGFTQADVGLALGTLYGNVFSQTTICRFEALQLSFKNMCKLKPLLNKELEEAD	-0.792 ± 0.23
DDLEQFAKQFKQRRIKLGFTQADVGLALGTLYGNVFSQTTICRFEALQLSFKNMCKLKPLLNKGLEEAD	-0.77 ± 0.15
DDLEQFAKQFKQRRIKLGFTQADVGLALGTLYGNVFSQTTICRFEALQLSFKNMCKLKPLLNKHLEEAD	-0.778 ± 0.45
DDLEQFAKQFKQRRIKLGFTQADVGLALGTLYGNVFSQTTICRFEALQLSFKNMCKLKPLLNKILEEAD	-0.715 ± 0.29
DDLEQFAKQFKQRRIKLGFTQADVGLALGTLYGNVFSQTTICRFEALQLSFKNMCKLKPLLNKLLEEAD	-0.913 ± 0.16
DDLEQFAKQFKQRRIKLGFTQADVGLALGTLYGNVFSQTTICRFEALQLSFKNMCKLKPLLNKMLEEAD	-0.83 ± 0.18

Variant	abundance fitness
DDLEQFAKQFKQRRIKLGFTQADVGLALGTLYGNVFSQTTICRFEALQLSFKNMCKLKPLLNKPLEEAD	-0.746 ± 0.47
DDLEQFAKQFKQRRIKLGFTQADVGLALGTLYGNVFSQTTICRFEALQLSFKNMCKLKPLLNKQLEEAD	-0.8 ± 0.34
DDLEQFAKQFKQRRIKLGFTQADVGLALGTLYGNVFSQTTICRFEALQLSFKNMCKLKPLLNKRLEEAD	-0.582 ± 0.16
DDLEQFAKQFKQRRIKLGFTQADVGLALGTLYGNVFSQTTICRFEALQLSFKNMCKLKPLLNKSLEEAD	-0.757 ± 0.3
DDLEQFAKQFKQRRIKLGFTQADVGLALGTLYGNVFSQTTICRFEALQLSFKNMCKLKPLLNKTLEEAD	-1.15 ± 0.42
DDLEQFAKQFKQRRIKLGFTQADVGLALGTLYGNVFSQTTICRFEALQLSFKNMCKLKPLLNKVLEEAD	-0.305 ± 0.12
DDLEQFAKQFKQRRIKLGFTQADVGLALGTLYGNVFSQTTICRFEALQLSFKNMCKLKPLLNKWCEEAD	-0.846 ± 0.37
DDLEQFAKQFKQRRIKLGFTQADVGLALGTLYGNVFSQTTICRFEALQLSFKNMCKLKPLLNKWFEEAD	-0.633 ± 0.47
DDLEQFAKQFKQRRIKLGFTQADVGLALGTLYGNVFSQTTICRFEALQLSFKNMCKLKPLLNKWGEEAD	-0.935 ± 0.29
DDLEQFAKQFKQRRIKLGFTQADVGLALGTLYGNVFSQTTICRFEALQLSFKNMCKLKPLLNKWIEEAD	-0.513 ± 0.36
DDLEQFAKQFKQRRIKLGFTQADVGLALGTLYGNVFSQTTICRFEALQLSFKNMCKLKPLLNKWKEEAD	-0.211 ± 0.11
DDLEQFAKQFKQRRIKLGFTQADVGLALGTLYGNVFSQTTICRFEALQLSFKNMCKLKPLLNKWMEEAD	-0.185 ± 0.12
DDLEQFAKQFKQRRIKLGFTQADVGLALGTLYGNVFSQTTICRFEALQLSFKNMCKLKPLLNKWQEEAD	-0.73 ± 0.15
DDLEQFAKQFKQRRIKLGFTQADVGLALGTLYGNVFSQTTICRFEALQLSFKNMCKLKPLLNKWREEAD	-0.674 ± 0.13
DDLEQFAKQFKQRRIKLGFTQADVGLALGTLYGNVFSQTTICRFEALQLSFKNMCKLKPLLNKWSEEAD	-0.58 ± 0.1
DDLEQFAKQFKQRRIKLGFTQADVGLALGTLYGNVFSQTTICRFEALQLSFKNMCKLKPLLNKWTEEAD	-0.732 ± 0.37
DDLEQFAKQFKQRRIKLGFTQADVGLALGTLYGNVFSQTTICRFEALQLSFKNMCKLKPLLNKWWEEAD	-0.297 ± 0.098
DDLEQFAKQFKQRRIKLGFTQADVGLALGTLYGNVFSQTTICRFEALQLSFKNMCKLKPLLNKWLCEAD	-0.046 ± 0.37
DDLEQFAKQFKQRRIKLGFTQADVGLALGTLYGNVFSQTTICRFEALQLSFKNMCKLKPLLNKWLDEAD	0.402 ± 0.26
